From paper PMC8190095, “Structural basis for inhibition of the AAA-ATPase Drg1 by diazaborine” (Nature Communications, 2021)

What was measured:
[1] = target: the molecule itself; assay: cryo-EM structure; single-particle cryo-EM of full-length wild-type Drg1, 1.75 mg/ml, with 2 mM ATPγS and 200 µg/ml (740 µM) thieno-diazaborine 2b18; 20 mM HEPES-KOH, 150 mM KOAc, 5 mM Mg(OAc)2, 0.005% Tween-20, 1 mM DTT, pH 7.6; no symmetry imposed
[2] = target: T1, GST-Rlp24C fragment (C-terminal fragment of the substrate protein Rlp24) (yeast, UniProt Q07915 147-199); assay: SPR; Biacore X100; 200 RU GST-Rlp24C amine-coupled on a CM5 chip, GST alone in the reference cell; 2 µM Drg1 with 1 mM ATPγS injected with or without 200 µg/ml diazaborine; 120 s association, 180 s dissociation; 20 mM HEPES-KOH, 150 mM KOAc, 5 mM Mg(OAc)2, 0.1% Tween-20, 1 mM DTT, pH 6.8; half-life from one-phase exponential decay; conditions: both partners purified
T1 construct: Rlp24, shuttling ribosome maturation factor of yeast, C-terminal fragment Rlp24C; The GST fusion was immobilised in SPR; also called Rlp24C-domain; source: purified
T1 sequence (looked up): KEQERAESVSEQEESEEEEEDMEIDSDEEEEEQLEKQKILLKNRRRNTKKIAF

- fold slower dissociation with diazaborine against without [2]: 2 fold
B1: Drg1 (AAA-ATPase), full-length wild type (enzyme, yeast, UniProt P32794 1-780, looked up)
chain: MAPKSSSSGSKKKSSASSNSADAKASKFKLPAEFITRPHPSKDHGKETCTAYIHPNVLSSLEINPGSFCTVGKIGENGILVIARAGDEEVHPVNVITLSTTIRSVGNLILGDRLELKKAQVQPPYATKVTVGSLQGYNILECMEEKVIQKLLDDSGVIMPGMIFQNLKTKAGDESIDVVITDASDDSLPDVSQLDLNMDDMYGGLDNLFYLSPPFIFRKGSTHITFSKETQANRKYNLPEPLSYAAVGGLDKEIESLKSAIEIPLHQPTLFSSFGVSPPRGILLHGPPGTGKTMLLRVVANTSNAHVLTINGPSIVSKYLGETEAALRDIFNEARKYQPSIIFIDEIDSIAPNRANDDSGEVESRVVATLLTLMDGMGAAGKVVVIAATNRPNSVDPALRRPGRFDQEVEIGIPDVDARFDILTKQFSRMSSDRHVLDSEAIKYIASKTHGYVGADLTALCRESVMKTIQRGLGTDANIDKFSLKVTLKDVESAMVDIRPSAMREIFLEMPKVYWSDIGGQEELKTKMKEMIQLPLEASETFARLGISAPKGVLLYGPPGCSKTLTAKALATESGINFLAVKGPEIFNKYVGESERAIREIFRKARSAAPSIIFFDEIDALSPDRDGSSTSAANHVLTSLLNEIDGVEELKGVVIVAATNRPDEIDAALLRPGRLDRHIYVGPPDVNARLEILKKCTKKFNTEESGVDLHELADRTEGYSGAEVVLLCQEAGLAAIMEDLDVAKVELRHFEKAFKGIARGITPEMLSYYEEFALRSGSSS
notes: Drg1, hexameric type II AAA-ATPase of yeast (N-domain, D1 and D2 AAA-domains), full-length wild type; the atomic model covers amino acids 239-780 of each of the six monomers; Hexamer in the presence of nucleotide (ATPγS); also called Drg1 wild type; wild-type Drg1; source: overexpressed in yeast as GST-Drg1, purified (GSH-agarose, eluted by Prescission protease cleavage from the GST-tag)
- stoichiometry N [1]: 6
